Patent US20070059304A1 (Pfizer, published 2007)
Blank lines part the entries; values can stand above or below the molecule they belong to.

Key:
[1] = molecular target: human TrkC expressed on HEK-293 cells (human) (UniProt Q16288); assay: cell-based or functional assay
[2] = molecular target: human TrkA expressed on HEK-293 cells (human) (UniProt P04629); assay: cell-based or functional assay
[3] = molecular target: human TrkB (full length), expressed on the surface of HEK-293 cells (human, UniProt Q16620 32-822); assay: cell-based or functional assay
Chain of human TrkB (full length), expressed on the surface of HEK-293 cells (Q16620 other isoform, or with tags, fused parts or gaps limits assumed): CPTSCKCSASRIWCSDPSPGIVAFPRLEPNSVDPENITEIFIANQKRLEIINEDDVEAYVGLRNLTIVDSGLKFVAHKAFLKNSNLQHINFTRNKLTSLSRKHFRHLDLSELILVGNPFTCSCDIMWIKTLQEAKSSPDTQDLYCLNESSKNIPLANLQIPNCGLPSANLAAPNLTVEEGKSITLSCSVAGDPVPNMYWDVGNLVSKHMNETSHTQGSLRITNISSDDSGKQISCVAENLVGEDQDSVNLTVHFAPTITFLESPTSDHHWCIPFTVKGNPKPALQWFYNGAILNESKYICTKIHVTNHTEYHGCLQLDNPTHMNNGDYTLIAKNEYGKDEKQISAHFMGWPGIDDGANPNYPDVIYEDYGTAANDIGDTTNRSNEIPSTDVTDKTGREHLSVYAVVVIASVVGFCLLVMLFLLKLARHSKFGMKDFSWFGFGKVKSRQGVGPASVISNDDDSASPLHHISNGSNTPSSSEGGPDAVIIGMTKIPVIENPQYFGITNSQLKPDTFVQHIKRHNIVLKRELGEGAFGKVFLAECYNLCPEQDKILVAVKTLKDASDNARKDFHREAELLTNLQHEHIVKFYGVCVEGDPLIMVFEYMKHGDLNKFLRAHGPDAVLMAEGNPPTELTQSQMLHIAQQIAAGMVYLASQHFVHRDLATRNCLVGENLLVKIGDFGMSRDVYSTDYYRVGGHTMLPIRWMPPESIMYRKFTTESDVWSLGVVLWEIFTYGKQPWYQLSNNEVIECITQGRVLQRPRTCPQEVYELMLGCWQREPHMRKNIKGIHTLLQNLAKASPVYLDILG

[4] = molecular target: T1, rhTrkB-EDC-Fc: recombinant protein that includes the extracellular domain of human TrkB fused to the Fc … (human, UniProt Q16620 32-430); assay: competition ELISA: rhTrkB-EDC-Fc binding to coated BDNF
T1 construct: bought (R&D system, Cat. No. 688-TK); also called human TrkB (ELISA); not shown: Fc region of human IgG1
T1 sequence (Q16620 32-430): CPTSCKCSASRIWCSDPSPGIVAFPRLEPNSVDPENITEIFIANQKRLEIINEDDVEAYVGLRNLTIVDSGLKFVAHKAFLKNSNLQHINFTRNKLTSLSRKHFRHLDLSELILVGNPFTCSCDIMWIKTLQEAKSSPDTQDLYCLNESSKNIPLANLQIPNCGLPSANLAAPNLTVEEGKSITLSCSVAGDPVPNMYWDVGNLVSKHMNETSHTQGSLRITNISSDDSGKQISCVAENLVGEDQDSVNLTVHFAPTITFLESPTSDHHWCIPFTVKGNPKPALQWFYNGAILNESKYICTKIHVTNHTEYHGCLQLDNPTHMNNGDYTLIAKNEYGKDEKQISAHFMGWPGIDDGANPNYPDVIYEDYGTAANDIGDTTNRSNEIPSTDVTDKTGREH

[5] = molecular target: T1, rhTrkB-EDC-Fc: recombinant protein that …; assay: ELISA on coated rhTrkB-EDC-Fc (ED50)

Chain of human TrkA expressed on HEK-293 cells (human) (P04629 33-796 limits assumed): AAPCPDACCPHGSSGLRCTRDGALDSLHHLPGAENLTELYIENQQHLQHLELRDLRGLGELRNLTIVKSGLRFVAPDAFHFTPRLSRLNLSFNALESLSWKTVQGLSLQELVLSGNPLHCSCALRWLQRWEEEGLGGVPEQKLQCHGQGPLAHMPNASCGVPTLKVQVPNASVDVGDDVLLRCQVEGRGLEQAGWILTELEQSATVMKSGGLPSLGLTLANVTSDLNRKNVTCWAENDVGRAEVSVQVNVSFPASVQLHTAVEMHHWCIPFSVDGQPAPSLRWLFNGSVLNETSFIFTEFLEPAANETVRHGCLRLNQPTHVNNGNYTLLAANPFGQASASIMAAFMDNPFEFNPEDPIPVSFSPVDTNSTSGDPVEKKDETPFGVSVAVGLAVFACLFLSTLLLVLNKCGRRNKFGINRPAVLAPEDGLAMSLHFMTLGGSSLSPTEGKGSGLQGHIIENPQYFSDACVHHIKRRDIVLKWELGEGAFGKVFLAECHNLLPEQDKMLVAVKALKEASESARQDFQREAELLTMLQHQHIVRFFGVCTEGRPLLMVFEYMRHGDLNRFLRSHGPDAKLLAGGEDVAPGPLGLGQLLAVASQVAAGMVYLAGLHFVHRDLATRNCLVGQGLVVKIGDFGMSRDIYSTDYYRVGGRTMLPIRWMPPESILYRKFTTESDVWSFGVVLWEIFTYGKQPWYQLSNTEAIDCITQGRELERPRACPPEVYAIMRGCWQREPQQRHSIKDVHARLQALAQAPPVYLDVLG
Chain of human TrkC expressed on HEK-293 cells (human) (Q16288 32-839 S70N limits assumed): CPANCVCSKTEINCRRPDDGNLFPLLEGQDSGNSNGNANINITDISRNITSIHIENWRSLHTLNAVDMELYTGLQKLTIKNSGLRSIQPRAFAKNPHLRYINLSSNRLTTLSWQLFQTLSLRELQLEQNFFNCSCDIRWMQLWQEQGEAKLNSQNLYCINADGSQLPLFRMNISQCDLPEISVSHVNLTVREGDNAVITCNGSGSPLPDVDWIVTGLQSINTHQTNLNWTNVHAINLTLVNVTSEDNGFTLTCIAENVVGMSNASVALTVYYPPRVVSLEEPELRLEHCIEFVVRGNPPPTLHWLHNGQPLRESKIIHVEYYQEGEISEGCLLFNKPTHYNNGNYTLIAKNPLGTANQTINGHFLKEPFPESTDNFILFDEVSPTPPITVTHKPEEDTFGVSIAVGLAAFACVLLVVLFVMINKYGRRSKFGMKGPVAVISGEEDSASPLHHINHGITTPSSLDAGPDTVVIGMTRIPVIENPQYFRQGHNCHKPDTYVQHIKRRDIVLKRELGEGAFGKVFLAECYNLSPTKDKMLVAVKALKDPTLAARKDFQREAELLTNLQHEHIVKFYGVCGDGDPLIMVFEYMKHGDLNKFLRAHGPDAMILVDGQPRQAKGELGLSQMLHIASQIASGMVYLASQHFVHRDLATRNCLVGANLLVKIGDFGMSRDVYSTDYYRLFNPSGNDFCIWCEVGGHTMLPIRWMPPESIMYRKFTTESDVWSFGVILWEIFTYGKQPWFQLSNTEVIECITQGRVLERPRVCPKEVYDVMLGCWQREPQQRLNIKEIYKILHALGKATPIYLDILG

TrkC luciferase assay: signal at 300 ng/ml NT-3 (fold over basal) [1]: 6
Molecule: NT-3 (ligand)

TrkA luciferase assay: signal at 300 ng/ml NGF (fold over basal) [2]: 6
Molecule: NGF (ligand)

luciferase assay, HEK-293 cells expressing rhTrkB: EC50 [3]: ~0.1 nM
IC50 [4]: 0.3 nM
EC50 [5]: 0.017 nM
B1: 4C7 (antibody)
chain 1: QVQLVQSGAEVKKPGASVKVSCKASGYTFTNYVILWVRQAPGQGLEWMGYINPYNDGTKYNEKFKGRVTMTRDTSTSTVYMELSSLRSEDTAVYYCARLLKYRRFSYYAIDYWGQGTTVTVSS
chain 2: DIQMTQSPSSLSASVGDRVTITCRASENVYSNLAWYQQKPGKAPKLLIYAASNLQSGVPSRFSGSGSGTDFTFTISSLQPEDIATYYCQHFWGSPFTFGQGTKLEIK

luciferase assay, HEK-293 cells expressing rhTrkB: signal at 200 ng/ml BDNF [3]: 6.2 fold over basal
B2: BDNF (ligand, UniProt P23560 129-247, looked up)
chain: HSDPARRGELSVCDSISEWVTAADKKTAVDMSGGTVTVLEKVPVSKGQLKQYFYETKCNPMGYTKEGCRGIDKRHWNSQCRTTQSYVRALTMDSKKRIGWRFIRIDTSCVCTLTIKRGR
